Test [1] addresses TIRC7 (human (endogenous in PBL)) (UniProt Q13488).
The target is the same in test [2]. The source holds these as a separate data set.

The values that follow come from article PMC2217592.

Sequence of UniProt Q13488 (Q13488 217-830): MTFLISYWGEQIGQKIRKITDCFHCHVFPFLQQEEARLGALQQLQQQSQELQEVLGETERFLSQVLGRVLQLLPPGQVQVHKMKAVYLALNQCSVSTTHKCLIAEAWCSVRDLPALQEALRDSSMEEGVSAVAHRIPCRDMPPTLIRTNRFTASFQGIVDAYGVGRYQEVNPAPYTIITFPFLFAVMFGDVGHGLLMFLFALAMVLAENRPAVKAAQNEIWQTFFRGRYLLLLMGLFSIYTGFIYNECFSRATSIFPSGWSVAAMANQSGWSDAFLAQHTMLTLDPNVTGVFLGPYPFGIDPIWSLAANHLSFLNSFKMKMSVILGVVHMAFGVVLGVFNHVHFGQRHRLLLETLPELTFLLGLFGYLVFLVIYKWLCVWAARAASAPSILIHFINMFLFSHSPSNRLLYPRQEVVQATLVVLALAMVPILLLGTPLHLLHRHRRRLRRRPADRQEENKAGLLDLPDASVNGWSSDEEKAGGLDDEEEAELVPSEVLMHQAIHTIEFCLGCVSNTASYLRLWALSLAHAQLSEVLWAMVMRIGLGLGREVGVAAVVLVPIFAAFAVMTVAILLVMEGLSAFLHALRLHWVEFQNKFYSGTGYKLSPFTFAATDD

In test [1], “soluble HLA-DR alpha 2 fusion protein (entire human HLA-DR alpha 2 domain linked to an IgG1 Fc protein) (Fc fusion)” showed a cells in G0/G1 cell cycle phase, human PBL activated with anti-CD3/CD28 48 h with sHLA-DRα2 50 µg/ml (propidium iodine, flow cytometry) of 89% and a subdiploid (apoptotic) cells 72 h after incubation of activated human PBL with sHLA-DRα2 of 46.4%. Further, in test [2], the apoptosis (Annexin V) of human CD4+ cells stimulated 72 h with anti-CD3/CD28, sHLA-DRα2 50 µg/ml turned out to be 51% and the apoptosis (Annexin V) of human CD8+ cells stimulated 72 h with anti-CD3/CD28, sHLA-DRα2 50 µg/ml came to 54%.
